Experimental data as given in US20180222987A1.

Legend:
[1] = target: Macaca fascicularis CD3 (TCR complex) on cyno HSC-F cells (Macaca fascicularis) (UniProt Q95LI5); assay: flow cytometry, cyno HSC-F
[2] = target: human CD3 (CD3ε of the TCR complex) on human T cells (human) (UniProt P07766); assay: flow cytometry, Jurkat E6-1 (w/o primary ab: 7)
[3] = target: Macaca fascicularis CD3 (TCR complex) on cyno HSC-F cells (Macaca fascicularis) (UniProt Q95LI5); assay: flow cytometry, cyno HSC-F (control row of Table 2; same value as in Table 1)
[4] = target: human CD3 (CD3ε of the TCR complex) on human T cells (human) (UniProt P07766); assay: flow cytometry, Jurkat E6-1 (w/o primary ab: 7; control row of Table 2; same value as in Table 1)
[5] = target: Macaca fascicularis CD3ε/δ-Fc fusion heterodimer (Macaca fascicularis) (UniProt Q95LI8); assay: SPR Biacore, CODV-Fab
Chain of Macaca fascicularis CD3ε/δ-Fc fusion heterodimer (Macaca fascicularis) (chain, as listed by the source mutant, chain 1 of 2): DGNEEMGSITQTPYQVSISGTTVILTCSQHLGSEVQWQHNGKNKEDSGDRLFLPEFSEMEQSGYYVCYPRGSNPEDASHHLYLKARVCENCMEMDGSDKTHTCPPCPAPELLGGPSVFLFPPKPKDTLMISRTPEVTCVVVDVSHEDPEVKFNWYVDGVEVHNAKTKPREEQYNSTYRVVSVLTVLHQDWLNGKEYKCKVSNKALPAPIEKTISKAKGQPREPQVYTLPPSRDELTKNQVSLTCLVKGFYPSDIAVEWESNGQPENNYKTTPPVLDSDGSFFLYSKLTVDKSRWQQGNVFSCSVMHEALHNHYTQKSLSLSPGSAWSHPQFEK
Chain of Macaca fascicularis CD3ε/δ-Fc fusion heterodimer (Macaca fascicularis) (Q95LI8 22-105, stated change not applied, chain 2 of 2): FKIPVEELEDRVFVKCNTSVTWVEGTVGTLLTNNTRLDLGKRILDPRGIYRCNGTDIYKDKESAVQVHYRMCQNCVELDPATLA

[6] = target: human CD3ε/δ-Fc fusion heterodimer (hCD3ε/δ-hFc) (human) (UniProt P04234); assay: SPR Biacore, CODV-Fab
Chain of human CD3ε/δ-Fc fusion heterodimer (hCD3ε/δ-hFc) (human) (chain, as listed by the source mutant, chain 1 of 2): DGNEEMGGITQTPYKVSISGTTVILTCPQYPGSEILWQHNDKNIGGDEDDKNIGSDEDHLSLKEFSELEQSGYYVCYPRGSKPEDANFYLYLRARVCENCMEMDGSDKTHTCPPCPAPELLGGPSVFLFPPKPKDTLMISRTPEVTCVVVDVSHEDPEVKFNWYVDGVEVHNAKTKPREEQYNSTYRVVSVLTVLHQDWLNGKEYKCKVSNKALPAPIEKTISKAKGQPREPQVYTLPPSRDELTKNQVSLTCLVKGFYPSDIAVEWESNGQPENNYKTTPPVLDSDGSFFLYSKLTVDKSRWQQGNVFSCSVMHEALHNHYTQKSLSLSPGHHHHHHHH
Chain of human CD3ε/δ-Fc fusion heterodimer (hCD3ε/δ-hFc) (human) (P04234 22-105, stated change not applied, chain 2 of 2): as the sequence (Q95LI8 22-105, stated change not applied, chain 2 of 2) above, with V5I, K15N, V20I, T32S, N33D, N34I, A64T, N74S, L83V counted along it

[7] = target: human CD123 on cells (human) (UniProt P26951); assay: cell-based or functional assay
Chain of human CD123 on cells (human) (P26951 19-378): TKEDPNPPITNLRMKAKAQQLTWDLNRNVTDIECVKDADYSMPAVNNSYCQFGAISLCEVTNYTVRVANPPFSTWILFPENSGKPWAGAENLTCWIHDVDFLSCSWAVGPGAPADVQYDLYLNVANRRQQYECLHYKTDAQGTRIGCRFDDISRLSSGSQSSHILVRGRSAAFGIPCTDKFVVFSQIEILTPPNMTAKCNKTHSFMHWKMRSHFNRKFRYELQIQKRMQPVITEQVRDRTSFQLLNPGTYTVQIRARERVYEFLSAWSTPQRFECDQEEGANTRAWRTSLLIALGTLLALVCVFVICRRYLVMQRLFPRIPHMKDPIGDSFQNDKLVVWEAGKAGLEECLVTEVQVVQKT

[8] = target: Macaca fascicularis CD3ε/δ-Fc fusion heterodimer (Macaca fascicularis) (UniProt Q95LI8); assay: SPR, SP-34 used as IgG
[9] = target: human CD3ε/δ-Fc fusion heterodimer (hCD3ε/δ-hFc) (human) (UniProt P04234); assay: SPR, SP-34 used as IgG
[10] = target: Macaca fascicularis CD3ε/δ-Fc fusion heterodimer (Macaca fascicularis) (UniProt Q95LI8); assay: SPR, cyno against human CD3ε/δ
[11] = target: Macaca fascicularis CD3ε/δ-Fc fusion heterodimer (Macaca fascicularis) (UniProt Q95LI8); assay: SPR Biacore, Fab-fragment
[12] = target: human CD3ε/δ-Fc fusion heterodimer (hCD3ε/δ-hFc) (human) (UniProt P04234); assay: SPR Biacore, Fab-fragment
[13] = target: recombinant huCD3ε/γ, Fc-tagged (PB01225) (human) (UniProt P07766); assay: SPR, Fc-captured CD3, 100 nM

Chain of Macaca fascicularis CD3 (TCR complex) on cyno HSC-F cells (Macaca fascicularis) (Q95LI5 22-198 limits assumed, one chain of several): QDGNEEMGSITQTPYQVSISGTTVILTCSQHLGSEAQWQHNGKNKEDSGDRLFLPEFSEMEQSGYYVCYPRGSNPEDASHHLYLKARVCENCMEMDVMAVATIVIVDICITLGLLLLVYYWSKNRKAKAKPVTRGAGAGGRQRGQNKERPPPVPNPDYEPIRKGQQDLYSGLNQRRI

FN18 (antibody) showed a geometric mean of relative fluorescence intensity [1] of 1260 rfu, a geometric mean of relative fluorescence intensity [2] of 7 rfu and a geometric mean of relative fluorescence intensity [3] of 1260 rfu. It also gave a geometric mean of relative fluorescence intensity [4] of 7 rfu.

“CODV-Fab 7G3 × I2C (bispecific antibody)” showed a Kd [5] of 0.4 nM, a Kd [6] of 0.5 nM and a koff [6] of 0.002 s⁻¹. The kon [6] was 4e+06 M⁻¹ s⁻¹ and the Activity EC50 (cytotoxic assay, THP-1 targets + primary human T cells) [7] was 0.02 µg/mL.

With SP-34 (antibody) the Kd [8] was 13 nM, the koff [8] was 0.0028 s⁻¹ and the kon [8] was 220000 M⁻¹ s⁻¹. For the same substance, the Kd [9] was 2.7 nM, the koff [9] was 0.003 s⁻¹ and the kon [9] was 1.1e+06 M⁻¹ s⁻¹. The ratio KD(cy)/KD(hu) [10] was 5.

Work on I2C Fab (monospecific anti-CD3 Fab) yielded a Kd [11] of 0.5 nM, a Kd [12] of 0.13 nM and a koff [12] of 0.0013 s⁻¹. The kon [12] was 1.1e+07 M⁻¹ s⁻¹.

OKT3 (antibody) showed an RU of Fab binding at 100 nM [13] of 3 RU.
